One block for each substance: values may come before it. Ends that are not written are not given here. chelating agent A = 3,5-di-(1-trimethylammoniumacetyl)-4-thiosemicarbazidobenzoic acid, dichloride salt
Key:
activated platelets = test: Aggregometer assay; assay type: cell-based
clot [1] = test: Gamma camera thrombus imaging in rabbits; assay type: in vivo, New Zealand White rabbits; settings: FIG. 8
Experimental: (§1) The specificity of uptake of Tc-99m labeled peptide […]-chelating agent A conjugate into rabbit thrombi was determined by directly comparing tissue uptake and images obtained in animals with an induced thrombus to those receiving a sham operation without induced thrombus.
Two groups of 3 rabbits were used. All animals were subjected to surgery to expose the superficial jugular vein as described in detail below. In the first group of animals, the jugular veins were clamped off and a silk thread was inserted into the jugular veins. These veins also received an injection of 10 units of bovine thrombin in 0.1 ml isotonic saline directly into the vein. […]
The peptide-chelating agent conjugate prepared as in Section 9, supra, was radiolabeled with Tc-99m as follows: Tc-99m was eluted from a molybdenum generator and adjusted to 40 mCi/ml with isotonic saline. […] After this incubation period the material was drawn into an appropriately labelled 5 ml syringe and a sample was analyzed by instant thin layer chromatography (ITLC) to determine radiochemical purity as described in Section 9, supra. This material was acceptable for injection into rabbits only if the radiochemical purity was ≥95% and the amount of radioactivity available for injection was within 20% of that required by this protocol (e.g., 4.8-7.3 mCi). […]

clot [2] = test: Biodistribution by dissection in rabbits with induced thrombus; assay type: in vivo, New Zealand White rabbits; settings: for 99M Tc / % ID/G (percent of injected dose per gram of tissue) / TISS:BLD / TISS:MUSC: 4 h after injection
Experimental: as §1
Two groups of 3 rabbits were used. All animals were subjected to surgery to expose the superficial jugular vein as described in detail below. In the first group of animals, the jugular veins were clamped off and a silk thread was inserted into the jugular veins. These veins also received an injection of 10 units of bovine thrombin in 0.1 ml isotonic saline directly into the vein. The second (sham control) group of animals was subjected to the same surgical procedures as the experimental group except that no silk was inserted into the veins of these animals and the veins received an injection of 0.1 ml isotonic saline only. Due to logistical difficulties in handling six animals at one time, the experiment was conducted in three parts, each part consisting of one sham and one thrombus-induced animal done in parallel on each of 3 days. Specific pathogen-free New Zealand White rabbits (2-2.6 kg) were used.
The model system of Collen et al. (1983, J. Clin. Invest. 71:368-376) was used (with minor modifications described below) to induce experimental thrombi in rabbits. The animals were anesthetized by intramuscular injection of 40 mg/kg ketamine-HC1 and 4 mg/kg acepromazine maleate. Just prior to surgery, the animals received 10 mg/kg sodium pentobarbital, which was also administered as needed during the course of the surgery. The neck area was shaved and swabbed with disinfectant. The jugular vein was exposed by making about a 5 cm paramedial incision, the vein was freed from tissues over about a 4 cm distance (up to the main bifurcation of the facial vein) and the side branches of the jugular were ligated. A 1-inch segment was clamped off with hemostats and, in the experimental (group 1) animals, a silk thread was placed longitudinally inside the vein and was tied off at each end. No suture was placed in the veins of sham control (group 2) animals. Ten (10) units of bovine thrombin in 0.1 ml of isotonic saline (or saline alone in sham control animals) was injected into the clamped vein segment using a 27 gauge needle. Thirty minutes later, the animals were given an intravenous injection (in the contralateral marginal ear vein) of a mixture of 2-7 μCi of Tc-99m labelled peptide-chelating agent conjugate.
The peptide-chelating agent conjugate prepared as in Section 9, supra, was radiolabeled with Tc-99m as follows: Tc-99m was eluted from a molybdenum generator and adjusted to 40 mCi/ml with isotonic saline. Fifty (50) mCi of this preparation was transferred to a Glucoscan vial (Dupont, Billerica, MA) and mixed. Six (6) mCi of Tc-99m/glucoscan mixture was then added to a vial containing 50 μg of the peptide-chelating agent conjugate and incubated for 1 h at room temperature. After this incubation period the material was drawn into an appropriately labelled 5 ml syringe and a sample was analyzed by instant thin layer chromatography (ITLC) to determine radiochemical purity as described in Section 9, supra. This material was acceptable for injection into rabbits only if the radiochemical purity was ≥95% and the amount of radioactivity available for injection was within 20% of that required by this protocol (e.g., 4.8-7.3 mCi).
All animals were dissected 4 h (240 min) after injection. A 3 ml blood sample was drawn, after which the animals were euthanized with an i.v. injection of T-61 euthanasia solution (American Hoechst, Sommerville, N.J.). The vein segment was surgically removed and the thrombus therein (if any) was isolated from the vein. A segment of the contralateral vein was also removed and a sample of muscle was obtained from an area of the neck distal to the surgical field. […]

Substance: Chelating Agent A-NH-SYRGDVRGDF: chelating agent A coupled with SYRGDVRGDF-NH2 peptide ({chelating agent A}-SYRGDVRGDF-NH2)
IC50 (activated platelets): 19.3 µM | clot-binding potency relative to the native peptide (activated platelets; relative to native peptide): full or even enhanced clot-binding potency

IC50 (activated platelets): 28.8 µM
Substance: SYRGDVRGDF [reference compound]

Substance: Tc-99m-labeled SYRGDVRGDF-chelating agent A conjugate: peptide-chelating agent conjugate prepared as in Section 9, radiolabeled with Tc-99m (SYRGDVRGDF-NH2; not fully specified (N-terminus); also: chelating agent A conjugate, site not given here, Tc-99m labelled (metal complex))
localization to clot in gamma camera imaging (clot [1]; 2 hours and 4 hours): localization of Tc-99m-labeled SYRGDVRGDF-chelating agent A conjugate to a clot | blood pool accumulation, area of the head (clot [1]; gamma camera image): blood pool accumulation of peptide-chelating agent A, which is non-specific | 99M Tc (clot [2]; Blood): 318229 | % ID/G (percent of injected dose per gram of tissue) (clot [2]; Blood): 0.0399 % ID/G | 99M Tc (clot [2]; Clot (Target)): 94319 | % ID/G (percent of injected dose per gram of tissue) (clot [2]; Clot (Target)): 0.3312 % ID/G | TISS:BLD (clot [2]; Clot (Target)): 28.30 | TISS:MUSC (clot [2]; Clot (Target)): 27.83 | 99M Tc (clot [2]; Muscle): 22369 | % ID/G (percent of injected dose per gram of tissue) (clot [2]; Muscle): 0.0119 % ID/G | 99M Tc (clot [2]; Vessel): 95629 | % ID/G (percent of injected dose per gram of tissue) (clot [2]; Vessel): 0.0870 % ID/G | TISS:BLD (clot [2]; Vessel): 2.18 | TISS:MUSC (clot [2]; Vessel): 7.28 | clot % ID/G relative to blood (clot [2]; clot vs blood): 8 fold | clot % ID/G relative to the blood vessel (clot [2]; clot vs blood vessel): 4 fold | % ID/G for the clot (clot [2]; clot, percent of injected dose per gram of tissue): 0.33%

— patent publication US5326856A, “Bifunctional isothiocyanate derived thiocarbonyls as ligands for metal binding” (Cytogen Corporation, priority 1992, dated 1994)
